Experimental data: patent US20200079848A1 (Five Prime, published 2020)

Columns and labels:
[1] = molecular target: T1, hILT4-His-Avi tag (human, UniProt Q8N423 22-459); assay: SPR Biacore T200, 37 C; antibody captured on protein A/G chip, monomeric hILT4 as analyte; kinetic fit
T1 construct: also called monomeric human ILT4; extracellular region of hILT4 linked to a His-Avi tag
Method: (§1) The binding kinetics of the parent and germline reversion mutant anti-hILT4 antibodies (in the context of IgG1.3) were measured via Surface Plasmon Resonance (SPR) using a Biacore® T200 instrument. The assay temperature was 37° C. and the running buffer was PBS pH 7.4 supplemented with 0.05% Tween-20. Allanti-hILT4 antibodies were captured on a CM4 chip with pre-immobilized protein A/G (Pierce Thermo Scientific catalog number 21186). […] Monomeric human ILT4 was injected as analyte. […] The hILT4 used in this experiment, comprising the extracellular region of hILT4 linked to a His-Avi tag, consists of the following amino acid sequence: […]

[2] = molecular target: T2, human ILT4 (hILT4) expressed on cells (human, UniProt Q8N423 22-597); assay: flow cytometry on hILT4-transfected CHO cells, MFI (PE); EC50 from the table beside the graph; the table has no unit, the concentration axis is in ug/mL
T2 construct: hILT4 on transfected CHO or 293T cells, or native on human monocytes and macrophages; also called LILRB2
T2 sequence (Q8N423 other isoform, or with tags, fused parts or gaps): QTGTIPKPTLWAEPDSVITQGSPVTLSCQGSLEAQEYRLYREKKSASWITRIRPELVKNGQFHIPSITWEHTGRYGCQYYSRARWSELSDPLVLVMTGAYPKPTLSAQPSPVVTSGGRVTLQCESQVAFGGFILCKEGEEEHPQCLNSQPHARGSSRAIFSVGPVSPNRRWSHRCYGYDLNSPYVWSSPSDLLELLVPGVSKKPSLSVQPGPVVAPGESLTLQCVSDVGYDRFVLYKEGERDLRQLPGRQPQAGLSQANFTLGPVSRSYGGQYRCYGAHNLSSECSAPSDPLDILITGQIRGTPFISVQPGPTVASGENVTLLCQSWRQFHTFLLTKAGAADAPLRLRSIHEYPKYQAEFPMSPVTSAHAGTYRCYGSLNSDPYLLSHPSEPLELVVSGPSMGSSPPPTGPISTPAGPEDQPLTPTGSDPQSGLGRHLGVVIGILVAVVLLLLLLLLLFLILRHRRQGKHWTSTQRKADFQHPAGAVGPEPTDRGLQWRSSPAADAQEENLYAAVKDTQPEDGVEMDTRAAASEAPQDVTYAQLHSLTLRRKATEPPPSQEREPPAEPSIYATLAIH

[3] = molecular target: T1, hILT4-His-Avi tag; assay: SPR Biacore T200, 37 C; antibody captured on protein A/G chip, monomeric hILT4 as analyte
Method: as §1

[4] = molecular target: T1, hILT4-His-Avi tag; assay: SPR Biacore T200, 37 C; antibody captured on protein A/G chip, monomeric hILT4 as analyte; steady state fit
Method: as §1

[5] = molecular target: T1, hILT4-His-Avi tag; assay: SPR Biacore T200, 37 C; antibody captured by anti-human Fc on CM4 chip, hILT4-His-Avi as analyte; 1:1 Langmuir fit
Method: The running buffer was 10 mM HEPES pH 7.4 supplemented with 0.05% Tween-20 and 1 g/L BSA. All anti-ILT4 antibodies were captured on a CM4 chip with pre-immobilized anti-human Fc capture antibody from Southern Biotech (catalog number 2081-01). […] All data were double-referenced and fitted to a 1:1 Langmuir model with mass transport using Biacore T200 Evaluation Software version 3.1.

[6] = molecular target: T2, human ILT4 (hILT4) expressed on cells; assay: flow cytometry on human monocytes of a healthy donor, directly labelled antibody, GMFI; EC50 from the table below the graph; the table has no unit, the concentration axis is in ug/mL
From the text: In FIG. 18B, monocytes selected from a normal healthy donor's peripheral blood were stained with individual anti-ILT4 antibodies conjugated to […].

[7] = molecular target: T2, human ILT4 (hILT4) expressed on cells; assay: flow cytometry on hILT4-transfected CHO cells, PE anti-human IgG secondary, GMFI (PE); EC50 from the table below the graph; the table has no unit, the concentration axis is in ug/mL
[8] = molecular target: T3, human LILRA3 (human, UniProt Q8N6C8 24-439); assay: antibody titration flow cytometry binding assay on transfected cells, nonlinear regression
T3 construct: whole, on cells; also called hLILRA3; LIRA3
T3 sequence (Q8N6C8 24-439): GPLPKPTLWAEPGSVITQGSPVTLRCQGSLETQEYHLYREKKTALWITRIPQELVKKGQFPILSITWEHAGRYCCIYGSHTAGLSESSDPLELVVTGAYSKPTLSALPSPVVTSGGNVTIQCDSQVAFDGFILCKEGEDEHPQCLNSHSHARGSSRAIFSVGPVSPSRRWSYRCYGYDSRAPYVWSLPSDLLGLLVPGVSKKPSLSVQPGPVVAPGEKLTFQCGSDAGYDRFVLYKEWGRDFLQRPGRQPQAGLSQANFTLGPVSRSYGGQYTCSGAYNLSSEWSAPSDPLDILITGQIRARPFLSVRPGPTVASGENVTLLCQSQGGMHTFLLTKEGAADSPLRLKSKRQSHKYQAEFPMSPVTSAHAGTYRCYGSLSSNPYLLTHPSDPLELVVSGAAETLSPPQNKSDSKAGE

[9] = molecular target: T2, human ILT4 (hILT4) expressed on cells; assay: as above
[10] = molecular target: T4, human ILT3 (human, UniProt Q8NHJ6 22-448); assay: flow cytometry, 293T transfectants, antibody 20 µg/ml; stacked histograms, control: parental cells
T4 construct: whole, on cells; also called hILT3
Method: (§2) Individual ILT family members were overexpressed in 293T cells. Each transfectant was stained with 20 μg/ml of anti-ILT4 antibodies followed by 1 μg/ml of anti-human IgG secondary mAb. Binding of the antibodies to each transfectant was measured by flow cytometry.

[11] = molecular target: T5, human LILRA5 (human, UniProt A6NI73 42-299); assay: as above
T5 construct: whole, on cells; also called hLILRA5
T5 sequence (A6NI73 42-299): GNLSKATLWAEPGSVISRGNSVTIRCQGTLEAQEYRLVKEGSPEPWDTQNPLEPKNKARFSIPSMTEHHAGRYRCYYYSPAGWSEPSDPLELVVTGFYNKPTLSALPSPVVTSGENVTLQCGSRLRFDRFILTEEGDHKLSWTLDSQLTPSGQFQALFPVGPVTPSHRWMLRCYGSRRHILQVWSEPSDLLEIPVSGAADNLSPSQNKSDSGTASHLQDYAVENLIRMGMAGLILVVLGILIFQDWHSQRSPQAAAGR
Method: as §2

[12] = molecular target: T6, human LILRA4 (human, UniProt P59901 24-499); assay: as above
T6 construct: whole, on cells; also called hLILRA4
T6 sequence (P59901 24-499): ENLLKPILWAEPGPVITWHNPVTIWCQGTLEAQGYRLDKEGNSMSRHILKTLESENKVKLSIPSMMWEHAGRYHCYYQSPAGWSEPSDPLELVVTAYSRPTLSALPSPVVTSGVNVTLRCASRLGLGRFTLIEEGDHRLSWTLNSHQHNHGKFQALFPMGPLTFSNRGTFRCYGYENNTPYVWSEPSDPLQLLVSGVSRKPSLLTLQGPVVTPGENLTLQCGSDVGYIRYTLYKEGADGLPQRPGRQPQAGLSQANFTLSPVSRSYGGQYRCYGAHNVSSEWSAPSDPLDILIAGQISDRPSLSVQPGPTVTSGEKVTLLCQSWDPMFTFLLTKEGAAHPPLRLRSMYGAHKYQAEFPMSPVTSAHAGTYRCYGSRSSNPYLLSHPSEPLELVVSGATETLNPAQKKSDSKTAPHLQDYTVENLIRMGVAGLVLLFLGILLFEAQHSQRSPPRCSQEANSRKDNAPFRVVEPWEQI
Method: as §2

[13] = molecular target: T7, human ILT5 (human, UniProt O75022 24-631); assay: as above
T7 construct: whole, on cells; also called hILT5; LILRB3
Method: as §2

[14] = molecular target: T8, human ILT2 (human, UniProt Q8NHL6 24-650); assay: as above
T8 construct: whole, on cells; also called hILT2
T8 sequence (Q8NHL6 24-650): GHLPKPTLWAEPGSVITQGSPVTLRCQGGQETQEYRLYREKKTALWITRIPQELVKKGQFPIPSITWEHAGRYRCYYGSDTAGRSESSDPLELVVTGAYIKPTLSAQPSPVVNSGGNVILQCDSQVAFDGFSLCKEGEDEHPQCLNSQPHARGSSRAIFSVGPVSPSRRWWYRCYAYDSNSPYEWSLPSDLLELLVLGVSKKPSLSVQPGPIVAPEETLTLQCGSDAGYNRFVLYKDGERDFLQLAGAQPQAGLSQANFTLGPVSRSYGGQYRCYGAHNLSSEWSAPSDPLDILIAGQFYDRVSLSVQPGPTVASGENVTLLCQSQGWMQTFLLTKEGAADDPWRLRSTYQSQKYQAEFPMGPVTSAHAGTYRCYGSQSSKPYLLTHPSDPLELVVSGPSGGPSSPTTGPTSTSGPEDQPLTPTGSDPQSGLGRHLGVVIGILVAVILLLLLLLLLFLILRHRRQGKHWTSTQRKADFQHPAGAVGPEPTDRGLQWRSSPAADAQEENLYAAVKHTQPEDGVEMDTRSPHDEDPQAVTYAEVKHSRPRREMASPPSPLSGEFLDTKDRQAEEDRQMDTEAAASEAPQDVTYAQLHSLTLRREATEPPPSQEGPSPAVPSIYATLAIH
Method: as §2

[15] = molecular target: T9, human LILRA2 (human, UniProt Q8N149 24-483); assay: as above
T9 construct: whole, on cells; also called hLILRA2
T9 sequence (Q8N149 24-483): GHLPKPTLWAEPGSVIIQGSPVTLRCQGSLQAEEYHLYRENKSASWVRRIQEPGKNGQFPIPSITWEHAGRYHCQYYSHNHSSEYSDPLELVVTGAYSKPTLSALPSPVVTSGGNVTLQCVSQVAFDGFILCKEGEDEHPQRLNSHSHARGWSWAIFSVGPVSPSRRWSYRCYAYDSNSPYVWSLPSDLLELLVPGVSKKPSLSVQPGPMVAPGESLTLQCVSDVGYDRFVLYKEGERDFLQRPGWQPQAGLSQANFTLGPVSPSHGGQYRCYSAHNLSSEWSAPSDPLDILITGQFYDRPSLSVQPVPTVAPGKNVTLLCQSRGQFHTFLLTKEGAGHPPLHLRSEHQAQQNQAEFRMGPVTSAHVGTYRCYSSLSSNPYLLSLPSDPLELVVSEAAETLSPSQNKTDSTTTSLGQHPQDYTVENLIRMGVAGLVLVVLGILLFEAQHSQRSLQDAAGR
Method: as §2

[16] = molecular target: T10, human LILRA6 (human, UniProt Q6PI73 24-481); assay: as above
T10 construct: whole, on cells; also called hLILRA6
T10 sequence (Q6PI73 24-481): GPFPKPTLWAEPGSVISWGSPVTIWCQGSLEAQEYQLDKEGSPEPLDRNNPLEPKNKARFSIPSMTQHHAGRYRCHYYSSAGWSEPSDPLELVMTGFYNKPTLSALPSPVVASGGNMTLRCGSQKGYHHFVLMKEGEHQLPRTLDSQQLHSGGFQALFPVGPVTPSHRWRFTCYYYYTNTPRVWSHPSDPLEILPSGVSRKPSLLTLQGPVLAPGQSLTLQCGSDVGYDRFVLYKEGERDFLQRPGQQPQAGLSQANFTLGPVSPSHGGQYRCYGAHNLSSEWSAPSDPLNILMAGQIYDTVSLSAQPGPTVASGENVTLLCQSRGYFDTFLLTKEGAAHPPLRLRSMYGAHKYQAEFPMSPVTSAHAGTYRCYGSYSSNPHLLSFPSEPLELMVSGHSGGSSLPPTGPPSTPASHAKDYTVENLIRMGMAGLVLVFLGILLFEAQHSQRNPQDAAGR
Method: as §2

[17] = molecular target: T11, human LIR8 (human, UniProt O75023 24-590); assay: as above
T11 construct: whole, on cells; also called hLIR8
T11 sequence (O75023 24-590): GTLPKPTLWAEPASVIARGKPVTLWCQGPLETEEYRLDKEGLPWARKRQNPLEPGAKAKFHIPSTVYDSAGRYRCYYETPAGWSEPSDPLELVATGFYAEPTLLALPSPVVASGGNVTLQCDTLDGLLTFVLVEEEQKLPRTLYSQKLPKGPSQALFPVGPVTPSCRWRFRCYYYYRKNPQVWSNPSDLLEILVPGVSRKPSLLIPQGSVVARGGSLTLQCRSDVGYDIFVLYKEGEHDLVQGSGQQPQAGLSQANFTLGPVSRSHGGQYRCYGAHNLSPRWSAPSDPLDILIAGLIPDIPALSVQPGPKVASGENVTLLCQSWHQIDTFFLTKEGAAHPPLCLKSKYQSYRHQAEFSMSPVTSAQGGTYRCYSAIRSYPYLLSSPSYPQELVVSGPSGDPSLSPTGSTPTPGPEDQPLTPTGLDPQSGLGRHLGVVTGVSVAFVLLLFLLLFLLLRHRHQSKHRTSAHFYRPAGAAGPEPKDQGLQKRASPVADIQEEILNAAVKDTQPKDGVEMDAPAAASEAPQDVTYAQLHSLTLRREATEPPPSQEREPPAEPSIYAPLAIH
Method: as §2

T1 sequence (Q8N423 other isoform, or with tags, fused parts or gaps): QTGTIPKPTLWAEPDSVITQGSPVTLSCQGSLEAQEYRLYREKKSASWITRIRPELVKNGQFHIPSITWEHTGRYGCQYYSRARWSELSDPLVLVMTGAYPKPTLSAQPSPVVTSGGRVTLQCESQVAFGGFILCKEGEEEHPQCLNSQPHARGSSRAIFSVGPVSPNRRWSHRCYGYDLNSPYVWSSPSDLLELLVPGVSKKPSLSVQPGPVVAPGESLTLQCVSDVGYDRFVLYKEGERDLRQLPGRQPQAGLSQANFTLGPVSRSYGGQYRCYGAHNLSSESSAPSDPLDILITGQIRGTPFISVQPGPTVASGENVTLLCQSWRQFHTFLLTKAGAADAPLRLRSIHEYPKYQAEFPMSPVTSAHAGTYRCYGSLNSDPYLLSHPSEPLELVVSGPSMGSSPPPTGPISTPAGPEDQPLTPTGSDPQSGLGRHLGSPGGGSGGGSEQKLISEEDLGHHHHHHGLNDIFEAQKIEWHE

Row | Binder | Kd [1] [nM] | app. act. [1] [%] | koff [1] [s⁻¹] | kon [1] [M⁻¹ s⁻¹] | EC50 [2] [µg/mL] | other results
1 | 21D9.b.hIgG1.3 (antibody, Germline reversion mutant of 21D9 (VH G2V, D10G); light chain of 21D9; IgG1.3) heavy: EVQLLESGGGLVQPGGSLRLSCATSGFTFSNYAMNWVRQAPGKGLEWISVISVSGGSTYYADSVKGRFTISRDNSKNTLYLQMNSLRAEDTAVYYCAKDYYYDSGSYYDSFFDYWGQGTLVTVSSASTKGPSVFPLAPSSKSTSGGTAALGCLVKDYFPEPVTVSWNSGALTSGVHTFPAVLQSSGLYSLSSVVTVPSSSLGTQTYICNVNHKPSNTKVDKRVEPKSCDKTHTCPPCPAPEAEGAPSVFLFPPKPKDTLMISRTPEVTCVVVDVSHEDPEVKFNWYVDGVEVHNAKTKPREEQYNSTYRVVSVLTVLHQDWLNGKEYKCKVSNKALPAPIEKTISKAKGQPREPQVYTLPPSREEMTKNQVSLTCLVKGFYPSDIAVEWESNGQPENNYKTTPPVLDSDGSFFLYSKLTVDKSRWQQGNVFSCSVMHEALHNHYTQKSLSLSPG light: not shown | 0.34 | 90 | 0.0011 | 3.1e+06 |  | 
2 | 9G4 (antibody, V domains shown, Hybridoma antibody (human IgG / human kappa), tested as hybridoma supernatant; also called 9G4 (hybridoma)) VH: QVQLQESGPGLVKPSETLSLTCTVSGGSISSYYWNWIRQPPGKGLEWLGYIYYSGSTKYNPSLKSRVTISVDTSKNQFSLKLSSVTAADTAVYYCASSGWYYFDYWGQGTLVTVSS VL: EIVLTQSPATLSLSPGERATLSCRASQSVSSYLAWYQQKPGQAPRLLIYDASNRATGIPARFSGSGSGTDFTLTISSLEPEDFAGYYCQQRSYWPWTFGQGTKVEIK |  |  |  |  | 2.84 | 
3 | 10F10.1.IgG1.3 (antibody, V domains shown, Germline reversion mutant of 10F10 (light chain F36Y); heavy chain of 10F10; IgG1.3; also called 10F10.VK-F36Y.IgG1.3) VH: QVQLVESGGGVVQPGRSLRLSCAASGFTFSSYAMHWVRQAPGKGLEWVAIISYDEYNKYYADSVKGRFTISRDNSKNTLYLQMNSLRAEDTAVYYCAREWVGIRYWGQGTLVTVSS VL: AIQLTQSPSSLSASVGDRVTITCRASQGISSALAWYQQKPGKAPKLLIYDASSLESGVPSRFTGSGSGTDFTLTISSLQPEDFATYYCQQFNSYPITFGQGTRLEIKR | 46 | 94 | ~0.07 | 1.5e+06 |  | fold loss in overall affinity relative to parent 10F10 [3]: ~3 fold; Kd [4]: 56 nM; app. act. [4]: 88%
4 | 10F10.4 (antibody, human IgG1, kappa, V domains shown, 10F10 with only the light chain reversion T63S) VH: QVQLVESGGGVVQPGRSLRLSCAASGFTFSSYAMHWVRQAPGKGLEWVAIISYDEYNKYYADSVKGRFTISRDNSKNTLYLQMNSLRAEDTAVYYCAREWVGIRYWGQGTLVTVSS VL: AIQLTQSPSSLSASVGDRVTITCRASQGISSALAWFQQKPGKAPKLLIYDASSLESGVPSRFSGSGSGTDFTLTISSLQPEDFATYYCQQFNSYPITFGQGTRLEIKR |  |  |  |  |  | Kd [5]: 22 nM; app. act. [5]: 117%; koff [5]: 0.027 s⁻¹; kon [5]: 1.2e+06 M⁻¹ s⁻¹
5 | 2E5.A11 (antibody, V domains shown, Hybridoma antibody (human IgG / human kappa), tested as hybridoma supernatant) VH: QVQLVESGGGVVQPGRSLRLSCTASGFTFSNYGMHWVRQAPGKGLEWVAVIWYDGSNEYYAESVKGRLTISRDNSKNTLYLQVNSLRAEDTAVYYCARDPFYGSGNYFDYWGQGTLVTVSS VL: not shown |  |  |  |  | 0.0986 | 
6 | 9C8.A6 (antibody, V domains shown, Hybridoma antibody (human IgG / human kappa from transgenic mice), tested as hybridoma supernatant) VH: QVQLVQSGAEVKKPGASVKVSCKASGYTFTSSDINWVRQATGQGLEWMGWMNPNSGHTGYAQKFQDRVTLTRDTSISTAYMELSSLRSEDSAVYYCARGGNSIDWGFSYYGLDVWGQGTTVTVSS VL: AIQLTQSPSSLSASVGDRVTITCRASQGISSALAWYQQKPGKAPKLLIYDASSLESGVPSRFSGSGSGTDFTLTISSLQPEDFATYYCQQFNSYPFTFGPGTKVDIK |  |  |  |  | 0.189 | 
7 | 21A5.a.IgG1.3 (antibody, V domains shown, Germline reversion mutant of 21A5 (VH I70T, VK A3V; 21A5.1 light chain); IgG1.3; also called ILT4.9.IgG1.3; ILT4.9) VH: QVQLVQSGAEVKKPGASVKVSCKASGYTFTDYYLHWVRQAPGQGLEWMGIFHPSGDITSSAQNFQGRVTMTRDTSTSTVYMELSSLRSEDTAVYYCARGGVLRYLDWSHAFDIWGQGTMVTVSS VL: not shown | 0.17 | 98 | 0.00019 | 1.1e+06 |  | EC50 [6]: 0.395 µg/mL; Kd [5]: 0.036 nM; app. act. [5]: 100%; koff [5]: 1.7e-05 s⁻¹; kon [5]: 490000 M⁻¹ s⁻¹; EC50 [7]: 0.0627 µg/mL; EC50 [8]: 52.9 µg/mL; EC50 [9]: 0.085 µg/mL; binding result [10]: no binding (tested: 20 µg/ml); binding result [11]: no binding (tested: 20 µg/ml); binding result [12]: no binding (tested: 20 µg/ml); binding result [13]: no binding (tested: 20 µg/ml); binding result [14]: no binding (tested: 20 µg/ml); binding result [15]: no binding (tested: 20 µg/ml); binding result [16]: no binding (tested: 20 µg/ml); binding result [17]: no binding (tested: 20 µg/ml)

More lines, main results first:

Row | Kd [1] [nM] | app. act. [1] [%] | koff [1] [s⁻¹] | kon [1] [M⁻¹ s⁻¹] | EC50 [2] [µg/mL] | Binder | other results
8 | 0.35 | 84 | 0.0011 | 3.1e+06 |  | 21D9.d.hIgG1.3 (antibody, V domains shown, Germline reversion mutant of 21D9; light chain of 21D9; IgG1.3; also called 21D9.VH-G2V/I48V) VH: EVQLLESGGDLVQPGGSLRLSCATSGFTFSNYAMNWVRQAPGKGLEWVSVISVSGGSTYYADSVKGRFTISRDNSKNTLYLQMNSLRAEDTAVYYCAKDYYYDSGSYYDSFFDYWGQGTLVTVSS VL: not shown | 
9 | 0.42 | 97 | 0.0012 | 3e+06 |  | 21D9.c.hIgG1.3 (antibody, V domains shown, Germline reversion mutant of 21D9; light chain of 21D9; IgG1.3; also called 21D9.VH-G2V/T24A.IgG1.3) VH: EVQLLESGGDLVQPGGSLRLSCAASGFTFSNYAMNWVRQAPGKGLEWISVISVSGGSTYYADSVKGRFTISRDNSKNTLYLQMNSLRAEDTAVYYCAKDYYYDSGSYYDSFFDYWGQGTLVTVSS VL: not shown | 
10 |  |  |  |  | 0.0174 | 21D9.H11 (antibody, V domains shown, Hybridoma antibody (human IgG / human kappa), tested as hybridoma supernatant; also called 21D9 (hybridoma)) VH: EGQLLESGGDLVQPGGSLRLSCATSGFTFSNYAMNWVRQAPGKGLEWISVISVSGGSTYYADSVKGRFTISRDNSKNTLYLQMNSLRAEDTAVYYCAKDYYYDSGSYYDSFFDYWGQGTLVTVSS VL: not shown | 
11 |  |  |  |  | 0.268 | 24E5.A7 (antibody, V domains shown, Hybridoma antibody (human IgG / human kappa), tested as hybridoma supernatant) VH: EVQLLESGGGLVQPGGSLRLSCAASGFTFSSYVMSWVRQAPGKGLEWVSGISGSGGSTYYADSVKGRFTISRDNSKNTLYLQMNSLRAEDTAVYYCAKDQDIIAAYYFVYWGQGTLVTVSS VL: DIQMTQSPSSLSASVGDRVTITCRASQGISSWLAWYQQKPEKAPKSLIYAASSLQSGVPSRFSGSGSGTDFTLTISSLQPEDFATYYCQQYNSYPLTFGGGTKVEIK | 
